Measurements: article PMC12000397, “Mechanism of client loading from BiP to Grp94 and its disruption by select inhibitors” (Nature Communications, 2025)
Where “and” joins values, the source holds several entries; their conditions need not be identical. Identical values can stand only once. Ends that are not written are not given here.

B1: FITC-labeled proIGF2_(25-120) (domain or fragment)
chain: AYGPGETLSGGELVDTLQFVSSDRGFYFSRPSSRANRRSRGIVEECSFRSSDLALLETYSATPAKSERDVSTSQAVLPDDFPRYPVGKFFQYDTWR
modifications: FITC (maleimide) on Cys70
B2: M86C Grp94 (natural protein, mouse, UniProt P08113 72-765, looked up)
chain: KSEKFAFQAEVNRMCKLIINSLYKNKEIFLRELISNASDALDKIRLISLTDENALAGNEELTVKIKCDKEKNLLHVTDTGVGMTREELVKNLGTIAKSGTSEFLNKMTEAQEDGQSTSELIGQFGVGFYSAFLVADKVIVTSKHNNDTQHIWESDSNEFSVIADPRGNTLGRGTTITLVLKEEASDYLELDTIKNLVRKYSQFINFPIYVWSSKTTVWDWELMNDIKPIWQRPSKEVEEDEYKAFYKSFSKESDDPMAYIHFTAEGEVTFKSILFVPTSAPRGLFDEYGSKKSDYIKLYVRRVFITDDFHDMMPKYLNFVKGVVDSDDLPLNVSRETLQQHKLLKVIRKKLVRKTLDMIKKIADEKYNDTFWKEFGTNIKLGVIEDHSNRTRLAKLLRFQSSHHSTDITSLDQYVERMKEKQDKIYFMAGSSRKEAESSPFVERLLKKGYEVIYLTEPVDEYCIQALPEFDGKRFQNVAKEGVKFDESEKTKESREATEKEFEPLLNWMKDKALKDKIEKAVVSQRLTESPCALVASQYGWSGNMERIMKAQAYQTGKDISTNYYASQKKTFEINPRHPLIRDMLRRIKEDEDDKTVMDLAVVLFETATLRSGYLLPDTKAYGDRIERMLRLSLNIDPEAQVEEEPEEEPED
notes: Grp94, mouse, residues 72-765 with the charged linker removed (Δ287-328), M86C for a designed disulfide bond; also called Grp94_(M86C); source: E. coli BL21, purified (Ni-NTA, anion exchange, SEC); not shown: His6, N-terminal, cleaved
B3: Mouse BiP (residues 27-655) (natural protein)
chain: not shown
notes: BiP, mouse, residues 27-655; also called full-length BiP; source: E. coli BL21, purified (Ni-NTA, anion exchange, SEC); not shown: His6, N-terminal, cleaved
B4: proIGF2_(92-120) fragment (Ext. Site 1), FITC-labeled (domain or fragment, UniProt P01344 92-120, looked up)
chain: RDVC(FITC maleimide)TPPTVLPDNFPRYPVGKFFQYDTWK
notes: proIGF2 residues 92-120, cysteine mutation at Ser95; also called extended site 1; source: purified from inclusion bodies (8 M urea; ion exchange and/or Ni-NTA, denaturing)
B5: Grp94 MD (domain or fragment)
chain: NDIKPIWQRPSKEVEEDEYKAFYKSFSKESDDPMAYIHFTAEGEVTFKSILFVPTSAPRGLFDEYGSKKSDYIKLYVRRVFITDDFHDMMPKYLNFVKGVVDSDDLPLNVSRETLQQHKLLKVIRKKLVRKTLDMIKKIADEKYNDTFWKEFGTNIKLGVIEDHSNRTRLAKLLRFQSSHHSTDITSLDQYVERMKEKQDKIYFMAGSSRKEAESSPFVERLLKKGYEVIYLTEPVDEYCIQALPEFDGKRFQNVAKE

How the values were obtained:
[1] = molecular target: B3; assay: fluorescence polarisation; 50 nM FITC-labeled client construct, BiP alone or Grp94 alone titrated; ADP conditions; 60 mM HEPES pH 7.0, 50 mM KCl, 5 mM MgCl2, 5% or 0% DMSO, 1 mM DTT, 0.75 mg/mL BSA, 1 mM ADP, 30 °C; single-site fit; details: both partners purified
BiP/Grp94 = molecular target: T1, BiP/Grp94 (mouse, UniProt P20029 27-655; P08113 72-765, Δ287-328); assay: fluorescence polarisation; FITC-labeled client preincubated with BiP, Grp94 then added; BiP and Grp94 varied together (Fig. 6A, B; apparent) or 5 μM BiP and 5 μM Grp94 monomer (ΔP, Fig. 6C), with and without inhibitors; ADP conditions; 60 mM HEPES pH 7.0, 50 mM KCl, 5 mM MgCl2, 1 mM DTT, 0.75 mg/mL BSA, 1 mM ADP, 30 °C; details: both partners purified
T1 construct: BiP, mouse, residues 27-655; Grp94, mouse, residues 72-765 with the charged linker removed (Δ287-328); also called BiP and Grp94; source: E. coli BL21, each purified (Ni-NTA, anion exchange, SEC), mixed; not shown: His6, N-terminal, cleaved; copies: + 2
T1 sequence (P20029 27-655, stated change not applied, one chain of several): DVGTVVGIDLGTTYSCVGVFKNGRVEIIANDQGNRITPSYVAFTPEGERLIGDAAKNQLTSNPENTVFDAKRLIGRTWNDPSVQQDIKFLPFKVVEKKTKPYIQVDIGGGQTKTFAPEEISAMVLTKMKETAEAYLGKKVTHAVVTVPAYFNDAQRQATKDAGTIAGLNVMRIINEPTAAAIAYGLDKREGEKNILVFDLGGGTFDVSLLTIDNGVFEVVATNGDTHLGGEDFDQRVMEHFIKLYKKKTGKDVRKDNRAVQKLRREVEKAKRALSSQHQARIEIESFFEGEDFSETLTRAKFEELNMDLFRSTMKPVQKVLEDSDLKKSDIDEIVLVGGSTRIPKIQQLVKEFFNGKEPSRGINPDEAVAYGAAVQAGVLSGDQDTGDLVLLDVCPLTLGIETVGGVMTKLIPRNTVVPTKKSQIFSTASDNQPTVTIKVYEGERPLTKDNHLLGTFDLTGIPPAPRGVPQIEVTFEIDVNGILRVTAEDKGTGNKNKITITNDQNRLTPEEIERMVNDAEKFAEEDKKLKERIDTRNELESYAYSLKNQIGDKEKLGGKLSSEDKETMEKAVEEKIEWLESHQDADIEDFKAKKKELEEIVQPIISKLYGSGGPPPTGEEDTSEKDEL

[2] = molecular target: the molecule itself; assay: cross-linking; 1 μM M86C Grp94 dimer, 50 mM KCl, 50 mM Tris pH 8, 4% DMSO, with or without 5 μM BiP NBD and 50 μM inhibitor; disulfide formed with 10 mM oxidized glutathione, 25 °C, 2 h; SDS-PAGE
[3] = molecular target: T2, Grp94 (residues 72-765) with the charged-linker removed (Δ287-328) (mouse, UniProt P08113 72-765, Δ287-328); assay: fluorescence polarisation; FITC-labeled client preincubated with BiP, Grp94 then added; BiP and Grp94 varied together (Fig. 6A, B; apparent) or 5 μM BiP and 5 μM Grp94 monomer (ΔP, Fig. 6C), with and without inhibitors; ADP conditions; 60 mM HEPES pH 7.0, 50 mM KCl, 5 mM MgCl2, 1 mM DTT, 0.75 mg/mL BSA, 1 mM ADP, 30 °C; details: both partners purified
T2 construct: Grp94, mouse, residues 72-765 with the charged linker removed (Δ287-328); also called wild-type Grp94; source: E. coli BL21, purified (Ni-NTA, anion exchange, SEC); not shown: His6, N-terminal, cleaved

FITC-labeled BiP NBD = molecular target: T3, FITC-labeled BiP NBD (mouse, FITC on Cys27 (D27C)); assay: fluorescence polarisation; 50 nM FITC-labeled BiP NBD constructs, Grp94 or Grp94 MD titrated; 25 mM Tris pH 7.5, 50 mM KCl, 1 mM ADP (hexokinase-treated), 1 mM DTT; single-site binding fit; details: both partners purified
T3 construct: also called FITC-NBD; D27C BiP; source: E. coli BL21, purified

[4] = molecular target: T4, FITC-labeled BiP_(D187A) NBD (mouse, FITC on Cys27 (D27C)); assay: as above; details: both partners purified
T4 construct: interface II mutant; also called FITC-D187A NBD; source: E. coli BL21, purified

Binder: B1
- Kd [1]: 1500 nM and 2500 nM
- Kd (BiP/Grp94): 1100 ± 200 nM

Binder: B2
- binding result [2]: binds

Binder: B3
- binding result [3]: binds

Binder: B4
- Kd [1]: 1900 ± 500 nM

Binder: B5
- Kd (FITC-labeled BiP NBD): 5800 ± 1200 nM
- Kd [4]: 6500 ± 700 nM
